Laboratory results from PMC11054746, “GRPR-Antagonists Carrying DOTAGA-Chelator via Positively Charged Linkers: Perspectives for Prostate Cancer Theranostics” (Pharmaceutics, 2024).
Starred links: 1 amine or outer side, 2 acyl side, 3 side chain; linkers in the order of their positions; H or OH if unused. Non-standard residues stand in square brackets, D forms with d. Residues, ends and D or L forms follow the SMILES beside them. *: point of attachment. DOTAGA = O=C(O)CN1CCN(CC(=O)O)CCN(C(CCC(=O)*)C(=O)O)CCN(CC(=O)O)CC1; Sta = CC(C)C[C@H](N)[C@@H](O)CC(=O)O; X1 = O=C(CN1CCC(N[*:1])CC1)[*:2]; Sar = CNCC(=O)O

Columns and labels:
[1] = Radiochemical stability: indium release in PBS or with EDTA excess, by iTLC; type: physicochemical; conditions: room temperature, 0.2 M citric acid, mean ± sd, n = 3
Description: The radiochemical yield was analyzed with instant thin layer chromatography (iTLC) strips (Agilent Technologies, Santa Clara, CA, USA), using 0.2 M citric acid buffer as a mobile phase (Rf = 0 for the radiolabeled peptide and Rf = 1 for free indium). The iTLC results were analyzed using Cyclone® Plus Phosphorimager (PerkinElmer, Hägersten, Sweden). The radiochemical stability was determined by incubating the radiolabeled compounds with phosphate-buffered saline (PBS) or a 1000-fold molar excess of ethylenediaminetetraacetic acid (EDTA) for 1 h at room temperature. The percentage of indium release was assessed by iTLC using 0.2 M citric acid as mobile phase. Stability tests were performed in triplicate for each compound.

PC-3 cells [2] = experiment: In vitro binding specificity assay (uptake with and without GRPR blocking by NOTA-PEG2-RM26); type: cell-based, human; conditions: 1 nM radiotracer, 1 h, unblocked
Description: The in vitro binding assay was performed on PC-3 cells seeded in 6-well plates (1.15 × 10^6 cells/well). Media containing a GRPR-blocking agent (NOTA-PEG2-RM26, 1 μM) were added to half of the wells. The plates were incubated at room temperature for 10 min and the medium containing the radiotracer under investigation was added to all wells in a final concentration of 1 nM. The plates were incubated for 1 h and then treated with 0.25% trypsin-EDTA to detach cells. The cells were collected and their activity was measured using the gamma counter.

PC-3 cells [3] = experiment: Cellular internalization; type: cell-based, human; conditions: 1 nM, acid wash, mean of 3 dishes ± sd, normalized to maximum cell association at 24 h
Description: For the cellular internalization assay, PC-3 cells (1 × 10^6 cells/dish) were used. The cells were incubated with 1 mL (1 nM) of solution containing the radiolabeled peptide under evaluation. At the 4 h and 24 h time points, the cells were treated with an acid wash (0.2 M glycine buffer with 0.15 M NaCl and 4 M urea, pH 2) for 5 min on ice to remove the membrane-bound peptide. After collection of acid fractions, the cells were treated with 1 M NaOH for at least 30 min and the cell debris were scraped and collected. The activity content in samples was measured using the gamma counter.

human GRPR = molecular target: T1, human GRPR (Homo sapiens, UniProt P30550); experiment: Affinity measurements in real time (LigandTracer) on PC-3 cells; type: binding; conditions: room temperature, 1:2 fitting interaction model
T1 construct: host or cells: PC-3 human prostate adenocarcinoma cells
T1 sequence (P30550 whole entry): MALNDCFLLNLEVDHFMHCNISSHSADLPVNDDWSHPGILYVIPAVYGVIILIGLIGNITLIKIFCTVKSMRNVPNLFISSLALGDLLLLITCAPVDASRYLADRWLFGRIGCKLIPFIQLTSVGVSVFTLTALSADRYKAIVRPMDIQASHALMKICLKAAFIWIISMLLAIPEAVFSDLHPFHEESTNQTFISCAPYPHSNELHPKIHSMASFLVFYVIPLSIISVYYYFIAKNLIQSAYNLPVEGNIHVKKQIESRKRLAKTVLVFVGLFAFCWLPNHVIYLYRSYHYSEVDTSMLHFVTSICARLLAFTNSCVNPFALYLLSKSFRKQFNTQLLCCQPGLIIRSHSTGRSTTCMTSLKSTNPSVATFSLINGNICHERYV
Description: The association curves were recorded at 1 nM and 3 nM of the radiolabeled peptides for 300 min. After reaching the plateau, the medium containing the radioligand was replaced with fresh medium and the dissociation curve was measured for about 16 h. The obtained sensorgrams were analyzed using TracerDrawer (Ridgeview Instruments AB, Uppsala, Sweden) and the dissociation constants (KD) were calculated.

in vivo = experiment: in vivo; set-up: species or system BALB/C nu/nu mice; conditions: BALB/C nu/nu, mouse, iv, total radioactivity; for tissue to tissue ratio at 4 h / tissue to tissue ratio at 24 h: Tumor-to-organ ratio
Description: (§1) All in vivo studies were performed following European guidelines on laboratory animal protection. The in vivo stability experiments were carried out in healthy male Swiss albino mice; the study protocol was approved by the Department of Agriculture and Veterinary Service of the Prefecture of Athens (protocol number #440448, 01-06-2021). The biodistribution, in vivo targeting specificity assay, and SPECT/CT imaging experiments were carried out on BALB/C nu/nu mice. The Ethics Committee for Animal Research in Uppsala (Sweden) approved the latter in vivo animal studies (permit number 00473/21). The BALB/C nu/nu mice were implanted with GRPR-positive prostate cancer xenografts by subcutaneous injection on the right hind leg of PC-3 cells suspended in PBS (7 × 10^6 cells/mouse) four weeks before the biodistribution studies.
(§2) The mice were iv injected with 40 pmol peptide (30 kBq in a total volume of 100 μL 1% bovine serum albumin (BSA) in PBS). […] At the indicated time points, mice were euthanized under anesthesia. The organs of interest were collected, weighed, and the sample radioactivity content was measured on the gamma counter. The percentage of injected activity per gram (%IA/g) of collected tumors, organs and tissues, the %IA for the remaining gastrointestinal tract and carcass, as well as the tumor-to-organ ratios (T/O) were calculated.

PC-3 xenografts = experiment: in vivo; set-up: species or system BALB/C nu/nu mice; conditions: mouse
Description: as §1, §2

[4] = 40 pmol, GI (gastrointestinal tract, GIT) uptake

In the case of CC(C)C[C@H](NC(=O)C[C@H](O)[C@H](CC(C)C)NC(=O)[C@H](Cc1c[nH]cn1)NC(=O)CN(C)C(=O)[C@@H](NC(=O)[C@H](C)NC(=O)[C@H](Cc1c[nH]c2ccccc12)NC(=O)[C@H](CCC(N)=O)NC(=O)[C@@H](Cc1ccccc1)NC(=O)CN1CCC(NC(=O)[C@H](CCCNC(=N)N)NC(=O)[C@H](CCCNC(=N)N)NC(=O)CCC(C(=O)O)N2CCN(CC(=O)O)CCN(CC(=O)O)CCN(CC(=O)O)CC2)CC1)C(C)C)C(N)=O (stereo partly drawn) [[^111In]In-AU-RM26-M4, metal not drawn] ({DOTAGA}-RR[X1][dF]QWAV[Sar]H[Sta]L-NH2), the “released [111In]In3+, ×1000 EDTA (1 h)” value ([1]; 1000-fold molar excess of EDTA) is reported as 3.2 ± 0.1% (3), the “released [111In]In3+, PBS” value ([1]; incubation in PBS, 1 h) is reported as 1.9 ± 0.1% (3) and the “cell uptake, fold higher than the other analogs of the series” value (PC-3 cells [2]) is reported as 2 fold. For the same molecule, the “internalized fraction at 24 h” value (PC-3 cells [3]) was 33 ± 7%, the ka1 (human GRPR; association at 1 and 3 nM) was 344000 M⁻¹ s⁻¹ and the ka2 (human GRPR; association at 1 and 3 nM) was 346000 M⁻¹ s⁻¹. The kd1 (human GRPR; dissociation about 16 h) was 2e-06 s⁻¹, the kd2 (human GRPR; dissociation about 16 h) was 2.08e-06 s⁻¹ and the tissue uptake at 4 h (in vivo; 40 pmol, Blood uptake) was 0.122 ± 0.0013 %ID/g. It also gave a tissue uptake at 24 h (in vivo; 40 pmol, Blood uptake) of 0.02 ± 0.01 %ID/g, a tissue uptake at 4 h (in vivo; 40 pmol, Bone uptake) of 0.13 ± 0.04 %ID/g and a tissue uptake at 24 h (in vivo; 40 pmol, Bone uptake) of 0.09 ± 0.02 %ID/g. The tissue uptake dose at 4 h (in vivo; 40 pmol, Carcass (whole body) uptake) was 3 ± 1.5 %ID, the tissue uptake dose at 24 h (in vivo; 40 pmol, Carcass uptake) was 0.8 ± 0.2 %ID and the tissue uptake dose at 4 h (in vivo; [4]) was 1.4 ± 0.3 %ID. For the same molecule, the tissue uptake dose at 24 h (in vivo; [4]) was 0.15 ± 0.03 %ID, the tissue uptake at 4 h (in vivo; 40 pmol, Kidneys uptake) was 7 ± 1 %ID/g and the tissue uptake at 24 h (in vivo; 40 pmol, Kidneys uptake) was 2.7 ± 0.1 %ID/g. It also gave a tissue uptake at 4 h (in vivo; 40 pmol, Liver uptake) of 0.6 ± 0.11 %ID/g, a tissue uptake at 24 h (in vivo; 40 pmol, Liver uptake) of 0.31 ± 0.07 %ID/g and a tissue uptake at 4 h (in vivo; 40 pmol, Lungs uptake) of 0.2 ± 0.08 %ID/g. For the same molecule, the tissue uptake at 24 h (in vivo; 40 pmol, Lungs uptake) was 0.06 ± 0.02 %ID/g, the tissue uptake at 4 h (in vivo; 40 pmol, Muscle uptake) was 0.06 ± 0.02 %ID/g and the tissue uptake at 24 h (in vivo; 40 pmol, Muscle uptake) was 0.02 ± 0.01 %ID/g. For the same molecule, the tissue uptake at 4 h (in vivo; 40 pmol, Pancreas uptake) was 3.4 ± 0.6 %ID/g, the tissue uptake at 24 h (in vivo; 40 pmol, Pancreas uptake) was 0.36 ± 0.08 %ID/g and the tissue uptake at 4 h (in vivo; 40 pmol, Small Int uptake) was 1.1 ± 0.3 %ID/g. The tissue uptake at 24 h (in vivo; 40 pmol, Small Int uptake) was 0.11 ± 0.03 %ID/g, the tissue uptake at 4 h (in vivo; 40 pmol, Spleen uptake) was 0.23 ± 0.07 %ID/g and the tissue uptake at 24 h (in vivo; 40 pmol, Spleen uptake) was 0.14 ± 0.04 %ID/g. For the same molecule, the tissue uptake at 4 h (in vivo; 40 pmol, Tumor uptake) was 15 ± 5 %ID/g, the tissue uptake at 24 h (in vivo; 40 pmol, Tumor uptake) was 7 ± 3 %ID/g and the tissue to tissue ratio at 4 h (in vivo; 40 pmol, Blood) was 123 ± 43. For the same molecule, the tissue to tissue ratio at 24 h (in vivo; 40 pmol, Blood) was 369 ± 228, the tissue to tissue ratio at 4 h (in vivo; 40 pmol, Bone) was 119 ± 40 and the tissue to tissue ratio at 24 h (in vivo; 40 pmol, Bone) was 79 ± 25. It also gave a tissue to tissue ratio at 4 h (in vivo; 40 pmol, Kidneys) of 2.3 ± 0.9, a tissue to tissue ratio at 24 h (in vivo; 40 pmol, Kidneys) of 2.6 ± 0.9 and a tissue to tissue ratio at 4 h (in vivo; 40 pmol, Liver) of 25 ± 11. For the same molecule, the tissue to tissue ratio at 24 h (in vivo; 40 pmol, Liver) was 23 ± 9, the tissue to tissue ratio at 4 h (in vivo; 40 pmol, Lungs) was 90 ± 59 and the tissue to tissue ratio at 24 h (in vivo; 40 pmol, Lungs) was 120 ± 61. For the same molecule, the tissue to tissue ratio at 4 h (in vivo; 40 pmol, Muscle) was 307 ± 168, the tissue to tissue ratio at 24 h (in vivo; 40 pmol, Muscle) was 347 ± 176 and the tissue to tissue ratio at 4 h (in vivo; 40 pmol, Pancreas) was 4 ± 1. The tissue to tissue ratio at 24 h (in vivo; 40 pmol, Pancreas) was 20 ± 5, the tissue to tissue ratio at 4 h (in vivo; 40 pmol, Small Int) was 15 ± 7 and the tissue to tissue ratio at 24 h (in vivo; 40 pmol, Small Int) was 67 ± 35. The tissue to tissue ratio at 4 h (in vivo; 40 pmol, Spleen) was 71 ± 37, the tissue to tissue ratio at 24 h (in vivo; 40 pmol, Spleen) was 54 ± 30 and the tissue uptake dose at 4 h (in vivo; Carcass uptake, Block) was 1.6 ± 0.3 %ID. For the same molecule, the tissue uptake dose at 4 h (in vivo; GI (gastrointestinal tract, GIT) uptake, Block) was 0.5 ± 0.2 %ID, the Blood uptake (PC-3 xenografts; BALB/C nu/nu, iv, 40 pmol, 4 h) was 0.125 ± 0.0004 %IA/g and the “kidney uptake at 24 h pi retained as % of the 4 h renal value” (PC-3 xenografts) was under 38%. The “pancreas uptake at 24 h pi as % of the initial 4 h uptake” value (PC-3 xenografts) was “less than 10%”.
